Results on 167 variants are retold here after the RNAGym collection of RNA variant scans (doi:10.7554/elife.90254).

The chains are these.
B1: LINE1-full (parent)
chain: UACGUAGGUGGUUUUCCCCUGAUAGUGCUAAGGGGGCCUGGAAGUUUGGACUGGGCAGAGCUCAACACAGCGUGGCAAAGUGGCUGUGGCUAGACUGCCUCUCUGGAUUCCUCGUCACUCAGCAGGGCAUCUCUGAGAGAAAUGCC

Variants of B1 are the subject of this series. The series can be described thus: self-cleavage, relative activity (ratio to wild type); higher = more cleavage; in vitro, sequencing; the parent is a self-cleaving ribozyme.
Take U9A G33U: the self-cleavage came out at 1.6.

Regarding U9A U46A, the self-cleavage came out at 1.22.

As to G7U U46C, the self-cleavage is 0.47.

On to U9A C19U, for which the self-cleavage amounted to 0.71. Turning to G8U C145U, the self-cleavage is 2.38. In the case of G8A C113A it was 1.31; in that of G8A A43G, 1.08.

For G7U A141G, the self-cleavage worked out at 1.62. In the case of U9A C38A it was 1.26; in that of G8U A136G, 0.46; in that of G7A A121G, 1.18. The same measure for U9A U45G: 1.05; for G7A A129G: 1.85; for G7A A129C: 1.07.

As to G7A U108C, the self-cleavage amounted to 1.57. In the case of U9A C98U it was 0.28.

In the case of G8C A22G, the self-cleavage was determined as 0. In the case of G7A U104A, the self-cleavage turned out to be 1.11.

G7A U104C: the self-cleavage was found to be 1.15. On to U9A G88A, for which the self-cleavage came out at 0.12. The same measure for U9A G60U: 0; for U9A G60A: 0.1; for G7U A94G: 0.36.

For G8A G49A, the self-cleavage worked out at 1.07. In the case of U9A A67U it was 0.25.

As for G8A U115C, the self-cleavage was determined as 1.33. As to U9A C116U, the self-cleavage worked out at 0.95. For U9A C120U, the self-cleavage worked out at 1.12. With G7A U20A, the self-cleavage is 0.96. Take U9A A94U: the self-cleavage is 0.39. On to G7A U39C, for which the self-cleavage came to 0.83. As to G8A U109C, the self-cleavage amounted to 1.21. In the case of U9A C123U it was 1.11; in that of U9A A138U, 1.01. In the case of G8A A79G, the self-cleavage was determined as 1.36. The same measure for G8A: 1.45; for G8U: 1.39; for G8C: 1.66. In the case of G7U A64G it was 0.35; in that of G8A A138G, 2.47; in that of G8A A30G, 0.67. With G7A U109A, the self-cleavage was determined as 1.49. The same measure for G8A U112C: 1.03; for G8A U9C: 0.63.

Regarding G8A G82A, the self-cleavage was determined as 1.71. The same measure for U9A C103U: 0.84; for G7U U39A: 1.67; for G8A U47C: 1.82. In the case of U9A G125U it was 0.15; in that of U9A A79G, 1.01. In the case of U9A A79U it was 1.59; in that of G8U U109C, 0.67. In the case of G8A U96A, the self-cleavage came out at 0.08. In the case of G8A U96C it was 0.15; in that of G7A U14C, 0.88. With U9A A77G, the self-cleavage came to 1.61. In the case of G7A U85C it was 0.11. For the variant G8U U81A, the self-cleavage was 2.37.

Turning to G7U U14C, the self-cleavage is 1.39. The same measure for G7A G89A: 0.02; for G8A A117C: 1.03; for G7U U104C: 0.9.

For U9A U14C, the self-cleavage is 0.89. In the case of U9A U14G it was 0; in that of G7A U87A, 0.04.

For the variant G7A U87C, the self-cleavage stood at 0.07. In the case of U9A U96C it was 0.19.

Turning to U9A A65G, the self-cleavage came to 0.21.

For the variant G8U A42U, the self-cleavage worked out at 1.17. The same measure for U9A A124C: 1.74.

For U9A A124G, the self-cleavage is 1.02. Consider G8A C120U, for which the self-cleavage came out at 2.87. Take G8U U115C: the self-cleavage came to 1.93. With U9A U73C, the self-cleavage was found to be 0.94.

Regarding U9A U73A, the self-cleavage turned out to be 1.29.

G8A U85C: the self-cleavage is 0.25. For U9A G54A, the self-cleavage turned out to be 0.65.

For the variant G8U U39A, the self-cleavage came to 1.12. As for G8U U119A, the self-cleavage was determined as 1.51. Turning to U9A A22G, the self-cleavage amounted to 1.53. G7U A77U: the self-cleavage turned out to be 1.04. With G8U C128U, the self-cleavage amounted to 1.14. In the case of U9A U12A it was 0.37; in that of G7A U132C, 1.2; in that of G7A G8C, 0. The same measure for U9A A121U: 2.38; for U9A A121G: 1.56; for U9A G144A: 1.19. For the variant G8A U91C, the self-cleavage worked out at 0.69. The same measure for U9A C37G: 0.82.

In the case of G8C U45C, the self-cleavage amounted to 2.04. In the case of G8A A124G it was 1.04; in that of U9A U23C, 0.93. For the variant G8A C37A, the self-cleavage came out at 0.87. In the case of G8A G70A it was 0.17; in that of G8A A57U, 0.16; in that of G7A G97A, 0.1. In the case of G8U A129G it was 0.32. Take G8U U9A: the self-cleavage stood at 2.01. In the case of U9A C110U, the self-cleavage worked out at 1.06. For the variant U9A G40A, the self-cleavage came out at 1. The same measure for U9A A107G: 1.02. In the case of G7U G11C it was 1.02. The same measure for G8A A64G: 0.42. On to G7U U62C, for which the self-cleavage stood at 0.04.

Turning to G8A U12C, the self-cleavage was found to be 1.17.

For U9A U62C, the self-cleavage was found to be 0.09.

For the variant U9A U87C, the self-cleavage came to 0.19. For the variant U9A U87A, the self-cleavage worked out at 0.15. In the case of U9A A64G it was 0.26. Consider U9A U29C, for which the self-cleavage is 1.19.

U9A U29A: the self-cleavage stood at 0.79. With G8A G34U, the self-cleavage is 1.22. Take G7A G127A: the self-cleavage came out at 1.3. The same measure for G7U A78G: 0.88. The same measure for G7A U73A: 1.31. The same measure for G8U U29C: 1.99; for G8A G44A: 1.08; for U9A G97A: 0.12.

As for G8C U81C, the self-cleavage was 1.08.

Consider G7C U85A, for which the self-cleavage is 0.2. The same measure for G7A U112C: 1.22; for G7U A138G: 1.31; for G8U A59G: 0.12. With G8A C61U, the self-cleavage was found to be 0.06.

As for G7A U134C, the self-cleavage is 1.17. For G8C A141U, the self-cleavage came out at 1.33. In the case of G8A A22G it was 1; in that of U9A A69U, 0.06. In the case of U9A A140U it was 1.08. The same measure for U9A A136U: 0.81; for G8A A69C: 0.04. For G7U A69G, the self-cleavage was found to be 0.94. In the case of U9A A92G it was 0.15; in that of U9A U91C, 0.36. In the case of U9A U91A it was 0.53; in that of G7C A142C, 1.1. In the case of U9A U104A it was 1.29; in that of U9A A50U, 0.45. Consider U9A A50G, for which the self-cleavage is 1.03. Consider U9A A24G, for which the self-cleavage was found to be 0.93. Take G7U A140U: the self-cleavage amounted to 1.34. As for U9A C111G, the self-cleavage worked out at 1.11. Consider G8U U14C, for which the self-cleavage is 2.04. Consider U9A U20C, for which the self-cleavage worked out at 0.88. The same measure for U9A G36A: 1.09; for U9A U15C: 1.08; for G7C U91C: 0. In the case of G7U A79G it was 0.87; in that of U9A, 1.05; in that of G8A U15C, 1.97. The same measure for G8A U87C: 0.19. Take U9A C131U: the self-cleavage was 0.79. The same measure for G8A G125U: 1.53; for U9A A59G: 0.18; for G7U U73A: 1.14. The same measure for G7A U46A: 1.23; for U9A A43U: 0.61. Turning to U9A A43G, the self-cleavage was 1.1. In the case of U9A A129C it was 1.22; in that of U9A A129G, 1.24; in that of G7U C123G, 1.13.

Consider G7U U15A, for which the self-cleavage stood at 0.97. In the case of G8A G135A it was 1.23; in that of U9A G70A, 0.12. Consider U9A U100A, for which the self-cleavage is 0.72. Regarding G8U G35A, the self-cleavage turned out to be 1.41.
